± gives the standard deviation.
Test: protein stability index of a GFP-peptide fusion (GPS, HEK-293T) (PSI 1-6); higher = more stable
Settings: c terminus: a fixed tail appended
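Note: 24-mer peptide tiles fused after GFP, lentivirally expressed, FACS-sorted into six equal bins by GFP/DsRed ratio, decoded by Illumina sequencing, PSI is the read-weighted mean bin number.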

EESPNGSEGACEKEKQSRDFQGRI [RHOBTB1]
protein stability index (treatment: DMSO): 5.35 ± 0.21
protein stability index (treatment: MLN4924 1 uM, 8 h): 5.32 ± 0.46

FLFNSELLSDVRFVLGKGRGAAAA [BTBD1]
protein stability index (treatment: DMSO): 2.12 ± 0.33
protein stability index (treatment: MLN4924 1 uM, 8 h): 2.33 ± 0.34

ETRVWHRRDGKWQNVHFHRSGSPT [CAMK2D]
protein stability index (treatment: DMSO): 3.74 ± 0.35
protein stability index (treatment: MLN4924 1 uM, 8 h): 3.71 ± 0.17

LLEKNASVNEVDFEGRTPMHVACQ [RIPK4]
protein stability index (treatment: DMSO): 3.83 ± 0.31
protein stability index (treatment: MLN4924 1 uM, 8 h): 3.94 ± 0.16

RGEGIQAPSFSSYLYFLFCPTLIY [SOAT2]
protein stability index (treatment: DMSO): 3.49 ± 0.45
protein stability index (treatment: MLN4924 1 uM, 8 h): 3.36 ± 0.69

WDLNMENRPIETYQVHDYLRSKLC [PPP2R2B]
protein stability index (treatment: DMSO): 2.65 ± 0.34
protein stability index (treatment: MLN4924 1 uM, 8 h): 2.72 ± 0.29

GKGSIKELFPTGKQLEPLVAPLAD [VPS39]
protein stability index (treatment: DMSO): 4.08 ± 0.26
protein stability index (treatment: MLN4924 1 uM, 8 h): 4.08 ± 0.11

KPWDFPSVHNDLWESWFVPDPAGI [GLT8D2]
protein stability index (treatment: DMSO): 2.96 ± 0.38
protein stability index (treatment: MLN4924 1 uM, 8 h): 2.69 ± 0.16

LKSLIRLVKHWYQNCKKKLGKLPP [OAS1]
protein stability index (treatment: DMSO): 2.94 ± 0.36
protein stability index (treatment: MLN4924 1 uM, 8 h): 3.02 ± 0.25

VKEPCSLPMLSVDMENKENGSVGV [SAMD13]
protein stability index (treatment: DMSO): 5 ± 0.19
protein stability index (treatment: MLN4924 1 uM, 8 h): 5.11 ± 0.21

FLAAEQDIREEIRKVVQSLEQTAR [TSN]
protein stability index (treatment: DMSO): 2.57 ± 0.45
protein stability index (treatment: MLN4924 1 uM, 8 h): 3.25 ± 0.64

SDGSCKTAGEMVFVYENAKEGARN [BTBD10]
protein stability index (treatment: DMSO): 4.31 ± 0.18
protein stability index (treatment: MLN4924 1 uM, 8 h): 4.48 ± 0.16

GKQAPRKKAQGKTQQNRKLTDFYP [KMT5A]
protein stability index (treatment: DMSO): 3.64 ± 0.42
protein stability index (treatment: MLN4924 1 uM, 8 h): 4.21 ± 0.41

TDGLQEVPLCSCRMETPKSREITT [EHMT1]
protein stability index (treatment: DMSO): 3.21 ± 0.25
protein stability index (treatment: MLN4924 1 uM, 8 h): 3.07 ± 0.26

LEKNHPEEFCEFVKSNTEQMREAF [ZBED1]
protein stability index (treatment: DMSO): 4.58 ± 0.13
protein stability index (treatment: MLN4924 1 uM, 8 h): 4.63 ± 0.16

TERGLSRKHIIEGLKASLERLQLE [KCNAB2]
protein stability index (treatment: DMSO): 2.5 ± 0.32
protein stability index (treatment: MLN4924 1 uM, 8 h): 2.22 ± 0.19

GDAHFDEDERWTNNFREYNLHRVA [MMP1]
protein stability index (treatment: DMSO): 3.84 ± 0.18
protein stability index (treatment: MLN4924 1 uM, 8 h): 4.11 ± 0.33

RRKEYDALKAAKREQEKKPKKEAN [LRRC59]
protein stability index (treatment: DMSO): 5.25 ± 0.15
protein stability index (treatment: MLN4924 1 uM, 8 h): 5.17 ± 0.22

RVFKARIYTNRYETNEEDKTLQEI [FBXO39]
protein stability index (treatment: DMSO): 2.98 ± 0.34
protein stability index (treatment: MLN4924 1 uM, 8 h): 3.43 ± 0.38

EELEQEELNKKMTNIRLPNVPSSS [CHMP4C]
protein stability index (treatment: DMSO): 5.27 ± 0.14
protein stability index (treatment: MLN4924 1 uM, 8 h): 5.29 ± 0.15

DHSQRICEVWACNLDEEMKKIRQV [CNOT7]
protein stability index (treatment: DMSO): 3.43 ± 0.2
protein stability index (treatment: MLN4924 1 uM, 8 h): 3.7 ± 0.18

GAFGIVHLCLRKADQKLVIIKQIP [NEK8]
protein stability index (treatment: DMSO): 2.55 ± 0.48
protein stability index (treatment: MLN4924 1 uM, 8 h): 2.3 ± 0.33

QFALTNGDPLNCHSYLSGYISLLL [NR2F2]
protein stability index (treatment: DMSO): 2.57 ± 0.57
protein stability index (treatment: MLN4924 1 uM, 8 h): 2.28 ± 0.3

GPWQLNVFVCRVSAVLFYVNMYVS [P2RY14]
protein stability index (treatment: DMSO): 2.77 ± 0.36
protein stability index (treatment: MLN4924 1 uM, 8 h): 2.72 ± 0.79

PLHELITMNRRVCVLMLLAAWIGG [OR4A15]
protein stability index (treatment: DMSO): 2.84 ± 0.27
protein stability index (treatment: MLN4924 1 uM, 8 h): 2.92 ± 0.26

EGSGHSTGEDSAFQEPDSPLPPAR [WEE1]
protein stability index (treatment: DMSO): 5.48 ± 0.14
protein stability index (treatment: MLN4924 1 uM, 8 h): 5.52 ± 0.13

VFDNAIRAALISRRHLQFWKSHLK [RHOBTB1]
protein stability index (treatment: DMSO): 2.06 ± 0.63
protein stability index (treatment: MLN4924 1 uM, 8 h): 2.4 ± 0.29

GRNRLYHDGKNQPSKTYPAFLEPD [SPSB1]
protein stability index (treatment: DMSO): 4.13 ± 0.12
protein stability index (treatment: MLN4924 1 uM, 8 h): 4.37 ± 0.072

QQFRADPSTASLLLCPGGLDHKLN [TIAF1]
protein stability index (treatment: DMSO): 3.48 ± 0.28
protein stability index (treatment: MLN4924 1 uM, 8 h): 3.58 ± 0.34

LEMRRRCTWSIFQSIEYAGQQDQV [PPEF2]
protein stability index (treatment: DMSO): 1.92 ± 0.52
protein stability index (treatment: MLN4924 1 uM, 8 h): 2.25 ± 0.1

MAAVLNAERLEVSVDGLTLSPDPE [ACBD3]
protein stability index (treatment: DMSO): 4.41 ± 0.17
protein stability index (treatment: MLN4924 1 uM, 8 h): 4.59 ± 0.17

From the supplement of paper PMC10567573
